We go through 2 molecules from PMC10412585, “High-throughput characterization of HLA-E-presented CD94/NKG2x ligands reveals peptides which modulate NK cell activation” (Nature Communications, 2023).

The target of experiment [1] is … peptide HLA-E single chain trimer (soluble, biotinylated) (human, biotin (AviTag)). Kind of experiment: SPR. The following applies: both partners purified.
Experiment [2] addresses WN peptide (…) HLA-E single chain trimer (soluble, biotinylated) (human, biotin (AviTag)). Kind of experiment: SPR; steady state, Biacore T200, biotinylated pMHC SCT immobilised at about 400 RU on a Series S SA chip, CD94/NKG2x as analyte 0.1-102.4 μM, 10 μL/min, 25 °C, HBS-EP+; reference HLA-DR401; approximate KD by Biacore software. The following applies: both partners purified.

B1: CD94/NKG2A single-chain fusion protein (human NKG2A ectodomain - GGSGGS - human CD94 ectodomain), produced in Hi5 cells for SPR (receptor)
chain: not shown
notes: also called CD94/NKG2x
As to B1, the Kd in experiment [1] is roughly 8.2 µM; in experiment [2], roughly 41.5 µM.

B2: CD94/NKG2C single-chain fusion protein (human NKG2C ectodomain - GGSGGS - human CD94 ectodomain), produced in Hi5 cells for SPR (receptor)
chain: not shown
notes: also called CD94/NKG2x
Regarding B2, the values for the Kd in experiment [1] and in experiment [2] were roughly 21.4 µM and roughly 17.4 µM, respectively.

A word on the Kd: it is the equilibrium constant for the complex coming apart. A high value points to weaker binding.
